Each sequence was assayed on c-Src (assay: phosphorylation enrichment, bacterial display (enrichment ratio); higher = better substrate or ligand; peptides without Tyr show the background).
For IGKAGYTDKVV [ENO1_Y236], the phosphorylation enrichment was 0.335.
For PFRSIYFSSPK [MPG_Y75_YF], the phosphorylation enrichment was 0.669.
LNPLFYSLRNK [OR5R1_Y290_I289F] was tested, and the phosphorylation enrichment was 0.348.
Sequence LARDMDDKEYY [MET_Y1230_Y1230D] has a phosphorylation enrichment of 0.531.
For QKMADYSNKLY [PDPR_Y104], the phosphorylation enrichment was 0.509.
In the case of ATVLNYLPKCI [A2M_Y817], the phosphorylation enrichment is reported as 0.385.
RPLVVYPWTQR [HBB_Y36_L32P] gave a phosphorylation enrichment of 0.446.
LIGRRYDDPEV [HSPA9_Y128] showed a phosphorylation enrichment of 1.27.
IGERTYGQVYK [CDK13_Y716_G714R] was tested, and the phosphorylation enrichment was 6.07.
ENRKYYMDLKE [PURA_Y156] gave a phosphorylation enrichment of 0.331.
Sequence YPPDGYSRHCE [CTNND1_Y213_Y217C] has a phosphorylation enrichment of 0.462.
For AVSHRYDLGGL [QPRT_Y162_A158V], the phosphorylation enrichment was 0.385.
WPLKWYVPECI [ZAP70_Y506_A507V] gave a phosphorylation enrichment of 0.387.
With PKEQRYSFLQN [GH1_Y68_K67R] the phosphorylation enrichment was 0.631.
KLLPEYPGVLS [DHFR2_Y163] was tested, and the phosphorylation enrichment was 0.458.
PDKRIYQFTAA [SKAP2_Y197] was tested, and the phosphorylation enrichment was 0.729.
RASQEYHIVKK [PDZD2_Y557_S552R] was tested, and the phosphorylation enrichment was 0.643.
With SLQAHYDTPRS [DOK7_Y405_R402Q] the phosphorylation enrichment was 0.368.
Work on RLDRSYSYSYS [PEAR1_Y890] yielded a phosphorylation enrichment of 0.42.
With HFPFQCHRQLF [F12_Y53_Y53C_YF] the phosphorylation enrichment was 0.692.
Sequence TKGMIYGGGGG [PSME1_Y249] has a phosphorylation enrichment of 0.535.
KLVQLYDVCTK [BTK_Y461_G462D] gave a phosphorylation enrichment of 1.56.
KDKLPYPFDDP [GPX2_Y125_YF] was tested, and the phosphorylation enrichment was 0.486.
With TGNPAYRSFSN [IL4R_Y497_A492T] the phosphorylation enrichment was 0.373.
HQPGEYIFHAE [FLT3_Y416] showed a phosphorylation enrichment of 0.852.
With ENFDDYMKDVG [FABP4_Y20_E23D] the phosphorylation enrichment was 0.43.
PRARTYCFKQE [KLHDC9_Y175_S171R_YF] gave a phosphorylation enrichment of 0.458.
WAFNLYDINKD [KCNIP3_Y174] showed a phosphorylation enrichment of 1.78.
ALLVFYAATIA [SLC20A2_Y187_P184L] gave a phosphorylation enrichment of 0.455.
In the case of GMKIVYVFVKK [DNAI2_Y5_E2K_YF], the phosphorylation enrichment is reported as 0.394.
Work on GPSTPYTKSKR [SMARCC2_Y324] yielded a phosphorylation enrichment of 0.452.
Sequence IVAEYYDNLPH [DEGS1_Y284_A280V] has a phosphorylation enrichment of 0.958.
GLAELYEYQKK [CKAP5_Y1854_K1857Q] showed a phosphorylation enrichment of 0.813.

Each sequence was assayed against SHP2-C SH2 (assay: SH2 binding enrichment of the phosphorylated peptide, bacterial display (enrichment ratio); higher = better substrate or ligand; peptides without Tyr show the background).
Work on IGKAGYTDKVV [ENO1_Y236] yielded an SH2 binding enrichment of 0.606.
PFRSIYFSSPK [MPG_Y75_YF] showed an SH2 binding enrichment of 0.565.
LNPLFYSLRNK [OR5R1_Y290_I289F] was tested, and the SH2 binding enrichment was 2.19.
Sequence LARDMDDKEYY [MET_Y1230_Y1230D] has an SH2 binding enrichment of 0.716.
In the case of QKMADYSNKLY [PDPR_Y104], the SH2 binding enrichment is reported as 0.604.
ATVLNYLPKCI [A2M_Y817] showed an SH2 binding enrichment of 0.736.
In the case of RPLVVYPWTQR [HBB_Y36_L32P], the SH2 binding enrichment is reported as 0.718.
LIGRRYDDPEV [HSPA9_Y128] showed an SH2 binding enrichment of 0.5.
IGERTYGQVYK [CDK13_Y716_G714R] showed an SH2 binding enrichment of 0.675.
ENRKYYMDLKE [PURA_Y156] was tested, and the SH2 binding enrichment was 0.657.
With YPPDGYSRHCE [CTNND1_Y213_Y217C] the SH2 binding enrichment was 0.666.
Sequence AVSHRYDLGGL [QPRT_Y162_A158V] has an SH2 binding enrichment of 0.76.
With WPLKWYVPECI [ZAP70_Y506_A507V] the SH2 binding enrichment was 0.488.
With PKEQRYSFLQN [GH1_Y68_K67R] the SH2 binding enrichment was 1.11.
With KLLPEYPGVLS [DHFR2_Y163] the SH2 binding enrichment was 0.809.
Work on PDKRIYQFTAA [SKAP2_Y197] yielded an SH2 binding enrichment of 0.57.
Sequence RASQEYHIVKK [PDZD2_Y557_S552R] has an SH2 binding enrichment of 1.03.
SLQAHYDTPRS [DOK7_Y405_R402Q] showed an SH2 binding enrichment of 0.636.
Sequence RLDRSYSYSYS [PEAR1_Y890] has an SH2 binding enrichment of 1.12.
In the case of HFPFQCHRQLF [F12_Y53_Y53C_YF], the SH2 binding enrichment is reported as 1.01.
TKGMIYGGGGG [PSME1_Y249] was tested, and the SH2 binding enrichment was 0.812.
Sequence KLVQLYDVCTK [BTK_Y461_G462D] has an SH2 binding enrichment of 0.865.
KDKLPYPFDDP [GPX2_Y125_YF] was tested, and the SH2 binding enrichment was 0.854.
TGNPAYRSFSN [IL4R_Y497_A492T] showed an SH2 binding enrichment of 0.65.
Work on HQPGEYIFHAE [FLT3_Y416] yielded an SH2 binding enrichment of 0.743.
Work on ENFDDYMKDVG [FABP4_Y20_E23D] yielded an SH2 binding enrichment of 0.729.
For PRARTYCFKQE [KLHDC9_Y175_S171R_YF], the SH2 binding enrichment was 1.12.
WAFNLYDINKD [KCNIP3_Y174] gave an SH2 binding enrichment of 0.6.
ALLVFYAATIA [SLC20A2_Y187_P184L] was tested, and the SH2 binding enrichment was 0.969.
Sequence GMKIVYVFVKK [DNAI2_Y5_E2K_YF] has an SH2 binding enrichment of 1.21.
With GPSTPYTKSKR [SMARCC2_Y324] the SH2 binding enrichment was 0.758.
IVAEYYDNLPH [DEGS1_Y284_A280V] was tested, and the SH2 binding enrichment was 0.574.
GLAELYEYQKK [CKAP5_Y1854_K1857Q] was tested, and the SH2 binding enrichment was 0.697.

Each sequence was assayed against c-Src SH2 in the same assay as above.
IGKAGYTDKVV [ENO1_Y236] was tested, and the SH2 binding enrichment was 0.371.
For PFRSIYFSSPK [MPG_Y75_YF], the SH2 binding enrichment was 0.447.
In the case of LNPLFYSLRNK [OR5R1_Y290_I289F], the SH2 binding enrichment is reported as 0.74.
Sequence LARDMDDKEYY [MET_Y1230_Y1230D] has an SH2 binding enrichment of 0.759.
QKMADYSNKLY [PDPR_Y104] was tested, and the SH2 binding enrichment was 0.447.
Work on ATVLNYLPKCI [A2M_Y817] yielded an SH2 binding enrichment of 0.535.
Work on RPLVVYPWTQR [HBB_Y36_L32P] yielded an SH2 binding enrichment of 0.623.
Work on LIGRRYDDPEV [HSPA9_Y128] yielded an SH2 binding enrichment of 0.822.
IGERTYGQVYK [CDK13_Y716_G714R] showed an SH2 binding enrichment of 0.565.
ENRKYYMDLKE [PURA_Y156] showed an SH2 binding enrichment of 0.874.
For YPPDGYSRHCE [CTNND1_Y213_Y217C], the SH2 binding enrichment was 0.693.
For AVSHRYDLGGL [QPRT_Y162_A158V], the SH2 binding enrichment was 0.6.
WPLKWYVPECI [ZAP70_Y506_A507V] gave an SH2 binding enrichment of 0.499.
For PKEQRYSFLQN [GH1_Y68_K67R], the SH2 binding enrichment was 2.17.
In the case of KLLPEYPGVLS [DHFR2_Y163], the SH2 binding enrichment is reported as 0.574.
Sequence PDKRIYQFTAA [SKAP2_Y197] has an SH2 binding enrichment of 0.645.
RASQEYHIVKK [PDZD2_Y557_S552R] was tested, and the SH2 binding enrichment was 1.11.
For SLQAHYDTPRS [DOK7_Y405_R402Q], the SH2 binding enrichment was 5.05.
For RLDRSYSYSYS [PEAR1_Y890], the SH2 binding enrichment was 1.41.
With HFPFQCHRQLF [F12_Y53_Y53C_YF] the SH2 binding enrichment was 0.951.
TKGMIYGGGGG [PSME1_Y249] was tested, and the SH2 binding enrichment was 0.483.
Sequence KLVQLYDVCTK [BTK_Y461_G462D] has an SH2 binding enrichment of 0.881.
With KDKLPYPFDDP [GPX2_Y125_YF] the SH2 binding enrichment was 0.454.
Work on TGNPAYRSFSN [IL4R_Y497_A492T] yielded an SH2 binding enrichment of 0.442.
With HQPGEYIFHAE [FLT3_Y416] the SH2 binding enrichment was 0.445.
Sequence ENFDDYMKDVG [FABP4_Y20_E23D] has an SH2 binding enrichment of 0.428.
Sequence PRARTYCFKQE [KLHDC9_Y175_S171R_YF] has an SH2 binding enrichment of 1.35.
For WAFNLYDINKD [KCNIP3_Y174], the SH2 binding enrichment was 0.563.
ALLVFYAATIA [SLC20A2_Y187_P184L] was tested, and the SH2 binding enrichment was 0.633.
GMKIVYVFVKK [DNAI2_Y5_E2K_YF] was tested, and the SH2 binding enrichment was 0.677.
Sequence GPSTPYTKSKR [SMARCC2_Y324] has an SH2 binding enrichment of 0.505.
IVAEYYDNLPH [DEGS1_Y284_A280V] was tested, and the SH2 binding enrichment was 1.5.
GLAELYEYQKK [CKAP5_Y1854_K1857Q] gave an SH2 binding enrichment of 0.509.

The sequences below were run against Grb2 SH2 (UniProt P62993) in the same assay as above.
Grb2 SH2, sequence (P62993 whole entry, looked up): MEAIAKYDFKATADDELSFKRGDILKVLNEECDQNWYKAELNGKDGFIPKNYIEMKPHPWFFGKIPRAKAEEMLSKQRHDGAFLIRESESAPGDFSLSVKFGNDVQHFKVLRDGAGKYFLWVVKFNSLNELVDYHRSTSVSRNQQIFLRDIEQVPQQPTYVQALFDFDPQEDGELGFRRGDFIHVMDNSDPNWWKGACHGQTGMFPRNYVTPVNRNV
Sequence IGKAGYTDKVV [ENO1_Y236] has an SH2 binding enrichment of 0.757.
PFRSIYFSSPK [MPG_Y75_YF] gave an SH2 binding enrichment of 0.843.
In the case of LNPLFYSLRNK [OR5R1_Y290_I289F], the SH2 binding enrichment is reported as 1.5.
Sequence LARDMDDKEYY [MET_Y1230_Y1230D] has an SH2 binding enrichment of 0.742.
In the case of QKMADYSNKLY [PDPR_Y104], the SH2 binding enrichment is reported as 0.776.
In the case of ATVLNYLPKCI [A2M_Y817], the SH2 binding enrichment is reported as 0.899.
RPLVVYPWTQR [HBB_Y36_L32P] gave an SH2 binding enrichment of 0.809.
Work on LIGRRYDDPEV [HSPA9_Y128] yielded an SH2 binding enrichment of 0.674.
Sequence IGERTYGQVYK [CDK13_Y716_G714R] has an SH2 binding enrichment of 0.866.
Sequence ENRKYYMDLKE [PURA_Y156] has an SH2 binding enrichment of 0.761.
YPPDGYSRHCE [CTNND1_Y213_Y217C] gave an SH2 binding enrichment of 0.9.
AVSHRYDLGGL [QPRT_Y162_A158V] was tested, and the SH2 binding enrichment was 0.849.
With WPLKWYVPECI [ZAP70_Y506_A507V] the SH2 binding enrichment was 0.841.
Sequence PKEQRYSFLQN [GH1_Y68_K67R] has an SH2 binding enrichment of 1.04.
KLLPEYPGVLS [DHFR2_Y163] showed an SH2 binding enrichment of 0.952.
Sequence PDKRIYQFTAA [SKAP2_Y197] has an SH2 binding enrichment of 0.82.
In the case of RASQEYHIVKK [PDZD2_Y557_S552R], the SH2 binding enrichment is reported as 1.01.
In the case of SLQAHYDTPRS [DOK7_Y405_R402Q], the SH2 binding enrichment is reported as 0.916.
Work on RLDRSYSYSYS [PEAR1_Y890] yielded an SH2 binding enrichment of 0.782.
In the case of HFPFQCHRQLF [F12_Y53_Y53C_YF], the SH2 binding enrichment is reported as 1.23.
With TKGMIYGGGGG [PSME1_Y249] the SH2 binding enrichment was 1.05.
In the case of KLVQLYDVCTK [BTK_Y461_G462D], the SH2 binding enrichment is reported as 0.984.
KDKLPYPFDDP [GPX2_Y125_YF] showed an SH2 binding enrichment of 0.815.
With TGNPAYRSFSN [IL4R_Y497_A492T] the SH2 binding enrichment was 0.791.
HQPGEYIFHAE [FLT3_Y416] gave an SH2 binding enrichment of 0.668.
Sequence ENFDDYMKDVG [FABP4_Y20_E23D] has an SH2 binding enrichment of 0.832.
In the case of PRARTYCFKQE [KLHDC9_Y175_S171R_YF], the SH2 binding enrichment is reported as 1.38.
For WAFNLYDINKD [KCNIP3_Y174], the SH2 binding enrichment was 0.718.
For ALLVFYAATIA [SLC20A2_Y187_P184L], the SH2 binding enrichment was 0.803.
In the case of GMKIVYVFVKK [DNAI2_Y5_E2K_YF], the SH2 binding enrichment is reported as 1.18.
In the case of GPSTPYTKSKR [SMARCC2_Y324], the SH2 binding enrichment is reported as 0.746.
IVAEYYDNLPH [DEGS1_Y284_A280V] showed an SH2 binding enrichment of 0.934.
With GLAELYEYQKK [CKAP5_Y1854_K1857Q] the SH2 binding enrichment was 0.671.
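Throughout, for SH2 binding enrichment of the phosphorylated peptide, bacterial display: peptide library displayed on the E. coli surface as eCPX fusions, selected cells deep-sequenced, score is each peptide's frequency after selection divided by its frequency in the input.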
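Throughout, for phosphorylation enrichment, bacterial display: 11-residue human phosphosite peptides and single-mutation variants displayed on the E. coli surface, counted by deep sequencing, each peptide's frequency after selection divided by its frequency in the unselected input library; frequency after pTyr selection over input frequency; kinase dosed for 20-30% of maximal phosphorylation in three min.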
